Laboratory results as given in the supplement of paper PMC7125110.
± gives the standard error. Fewer inactive variants are shown than the library holds.

B1: glmS ribozyme (parent)
chain: AUAAAAGCGCCAGAACUACAGAAAUGUAGUUGACGAGGAGGAGGUUUAUCGAAUUUUCGGCGGAUGCCUCCAAA

How the values were obtained:
Conditions in all cases: with glucosamine-6-phosphate
[1] = variants of: B1; assay: self-cleavage kobs at 160 uM GlcN6P; higher = faster cleavage; RNA array
In short: (§1)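 Glucosamine-6-phosphate, from 40 μM to 10 mM in HEPES/KCl/Mg(OAc)2 buffer, was flowed over sequenced MiSeq chips carrying barcoded ribozyme variants transcribed in situ by E. coli RNA polymerase. A hybridised Cy3 probe tracked the variants at 37 °C as tiles were imaged over ~14 h. kobs, kcat and KM were obtained by fitting normalised per-tile medians to exponential decays and then applying weighted Michaelis–Menten fits across concentrations.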

[2] = variants of: B1; assay: self-cleavage kobs at 640 uM GlcN6P; higher = faster cleavage; RNA array
In short: as §1

[3] = variants of: B1; assay: self-cleavage kobs at 2500 uM GlcN6P; higher = faster cleavage; RNA array
In short: as §1

[4] = variants of: B1; assay: self-cleavage kobs at 10000 uM GlcN6P; higher = faster cleavage; RNA array
In short: as §1

Row | Variant | self-cleavage kobs at 160 uM GlcN6P [1] | self-cleavage kobs at 640 uM GlcN6P [2] | self-cleavage kobs at 2500 uM GlcN6P [3] | self-cleavage kobs at 10000 uM GlcN6P [4]
1 | AUAAAAGCGCCGGAACUACAGAAAUGUAGUUGGCGAGGAGGAGGUUUAUCGAAUUUUCGGCGGAUGCCUCCAAA [A12G A33G] | < 1e-05 s⁻¹ | < 1e-05 s⁻¹ | < 1e-05 s⁻¹ | < 1e-05 s⁻¹
2 | AUAAAUGCGCAAGAACUACAGAAAUGUAGUUGACGAGGAGGAGGUUUAUCGAAUUUUCGGCGGAUGCCUCCAAA [A6U C11A] | < 1e-05 s⁻¹ | < 1e-05 s⁻¹ | < 1e-05 s⁻¹ | –
3 | AUAAAAGCGCCAGAACUACAGAAAUGUAGUUGACGAGGAGGAGGUUUAGCGAAUUUUCGGCGUAUGCCUCCAAA [U49G G63U] | < 1e-05 s⁻¹ | – | < 1e-05 s⁻¹ | < 1e-05 s⁻¹
4 | AUAAAAGCACCUGAACUACAGAAAUGUAGUUGCCGAGGAGGAGGUUUAUCGAAUUUUCGGCUGAUGCCUCCAAA [G9A A12U A33C G62U] | < 1e-05 s⁻¹ | – | – | –
5 | AUAAAAGCGCCAGAACUACAGAAAUGUAGUUGACGCGGAAGAGGUUUAUCGAAUUUUCGGCGGAUGCCUCCAAA [A36C G40A] | < 1e-05 s⁻¹ | < 1e-05 s⁻¹ | – | < 1e-05 s⁻¹
6 | AUAAAAGCGCCAGAACUACAGAAAUGUAGUUGACGUGGAGGAGGUUUAUCGAAUCUUCGGCGGAUGCCUCCAAA [A36U U55C] | < 1e-05 s⁻¹ | < 1e-05 s⁻¹ | – | –
7 | AUAAAAGCGCCAGAACUACAGAAAUGUAGUUUACGAGGAGGAGGUUUAUCGAAGUUUCGGCGGAUGCCUCCAAA [G32U U54G] | 7.28e-05 ± 2.7e-05 s⁻¹ | 0.000164 ± 5.1e-05 s⁻¹ | 0.000272 ± 6.1e-05 s⁻¹ | 0.000903 ± 0.00012 s⁻¹
8 | AUAAAAGCGCCAGAGCUACAGAAAUGUAGUUGACGAGGAAGAGGUUUAUCGAGUUUUCGGCGGAUGCCUCCAAA [A15G G40A A53G] | 0.000772 ± 0.00017 s⁻¹ | – | 0.00292 ± 0.00062 s⁻¹ | –
9 | AUAAAAGCACCAGAACUACAGAAAUGUAGUUGACGGGGAGGAGGUUUAUCGAAUUUUCGGCGGCUGCCUCCAAA [G9A A36G A64C] | < 1e-05 s⁻¹ | – | < 1e-05 s⁻¹ | –
10 | AUAAAAGCGCCAGAACUACAGAAAUGUAGUUGACGAGGGGCAGGUGUAUCGAAUUUUCGGCGGUUGCCUCCAAA [A39G G41C U46G A64U] | < 1e-05 s⁻¹ | – | – | –
11 | AUAAAAGCGCCAGAACUACAGAAAUGUAGUUGAGGAGUAGGAGCUUUACCGAAUUUUCGGCGGAUGCCUCCAAA [C34G G38U G44C U49C] | < 1e-05 s⁻¹ | – | – | –
12 | AUAAAAGCGCCAGAACUACAGAAAUGUAGUUGCCGAGGAGGAGGUUGAUCGAAUUUUCGGCGGAUGCCUCCAAA [A33C U47G] | – | 8.08e-05 ± 3e-05 s⁻¹ | – | 6.4e-05 ± 1.3e-05 s⁻¹
13 | AUAAAAGCGCCAGAACUACAGAAAUGUAGUUGACGAGGAGGAGGUUGAUCGAACUUUCGGCGGAUGCCUCCAAA [U47G U54C] | 0.000851 ± 0.00032 s⁻¹ | 0.0026 ± 0.00053 s⁻¹ | 0.00468 ± 0.00094 s⁻¹ | 0.0139 ± 0.0032 s⁻¹
14 | AUAAAAGCCCCAGAACUACAGAAAUGUAGUUGUCGGGGAGGAGGAUUCUCGAAUUUUCGGCGGAUGCCUCCAAA [G9C A33U A36G U45A A48C] | < 1e-05 s⁻¹ | < 1e-05 s⁻¹ | < 1e-05 s⁻¹ | –
